Data on eleven molecules can be found in patent US20130005646A1 (Novo Nordisk, published 2013).

For experiment [1], the target named is T1, human calcitonin (a) receptor (human, UniProt P30988 25-474).
T1 sequence (looked up): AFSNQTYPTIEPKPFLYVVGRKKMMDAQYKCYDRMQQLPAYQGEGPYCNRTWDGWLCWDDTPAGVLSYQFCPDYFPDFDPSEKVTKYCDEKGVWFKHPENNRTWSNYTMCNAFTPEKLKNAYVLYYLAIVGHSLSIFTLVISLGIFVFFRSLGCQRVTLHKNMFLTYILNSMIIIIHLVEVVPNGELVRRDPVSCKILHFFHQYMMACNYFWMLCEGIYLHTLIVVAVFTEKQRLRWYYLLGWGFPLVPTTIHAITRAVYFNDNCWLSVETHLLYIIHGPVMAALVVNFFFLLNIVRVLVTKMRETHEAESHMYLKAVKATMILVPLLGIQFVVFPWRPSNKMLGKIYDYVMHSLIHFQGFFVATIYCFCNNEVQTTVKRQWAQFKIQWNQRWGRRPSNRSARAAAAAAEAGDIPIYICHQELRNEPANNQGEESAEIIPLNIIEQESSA
Kind of experiment: cell-based or functional assay.

Experiment [2] addresses T2, human amylin 3(a) receptor (human calcitonin receptor + RAMP-3) (human, UniProt P30988 25-474; O60896 24-148).
T2 sequence (looked up) 1: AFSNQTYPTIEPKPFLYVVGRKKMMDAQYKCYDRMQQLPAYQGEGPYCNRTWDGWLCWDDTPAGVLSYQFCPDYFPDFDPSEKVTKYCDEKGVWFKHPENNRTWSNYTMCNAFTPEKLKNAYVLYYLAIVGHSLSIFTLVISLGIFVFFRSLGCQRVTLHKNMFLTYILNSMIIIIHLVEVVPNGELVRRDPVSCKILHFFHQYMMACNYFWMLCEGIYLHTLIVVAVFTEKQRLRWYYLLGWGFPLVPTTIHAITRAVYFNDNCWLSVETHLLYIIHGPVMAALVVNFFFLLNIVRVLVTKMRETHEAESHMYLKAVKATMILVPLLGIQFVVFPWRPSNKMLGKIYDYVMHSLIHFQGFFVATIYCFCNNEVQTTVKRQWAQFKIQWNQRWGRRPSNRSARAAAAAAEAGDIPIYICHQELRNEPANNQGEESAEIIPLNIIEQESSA
T2 sequence (looked up) 2: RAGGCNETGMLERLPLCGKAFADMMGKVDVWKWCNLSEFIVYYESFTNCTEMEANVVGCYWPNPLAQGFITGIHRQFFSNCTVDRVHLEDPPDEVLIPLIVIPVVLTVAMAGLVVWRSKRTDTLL
Description: cell-based or functional assay.

Starred links: 1 amine or outer side, 2 acyl side, 3 side chain; linkers in the order of their positions; H or OH if unused. Positions of bridges follow the written chain, without caps; N, C: chain ends. Groups on a side chain read outwards from the residue. No end group written: not given here. *: point of attachment. X1 = (S)‑4‑Carboxy‑4‑(19-carboxynonadecanoylamino)butyryl, O=C(O)CCCCCCCCCCCCCCCCCCC(=O)N[C@@H](CCC(=O)*)C(=O)O; C20 diacid = O=C(O)CCCCCCCCCCCCCCCCCCC(=O)*; γGlu = O=C(O)[C@H](CCC(=O)[*:2])N[*:1]; AEEA = NCCOCCOCC(=O)O

KCNTATCATQRLANFLHHSSK([AEEA-AEEA-γGlu-19‑carboxyheptadecanoyl])NFGPILSPTNVGSHTY-NH2 (disulfide 2-7): in experiment [1], the “CTa receptor human EC50” value amounted to 0.889 nM. The “Amylin receptor human EC50” value in experiment [2] stood at 0.482 nM.
Taken in the same sequence, the figures for KCNTATCATQRLAEFLHHSSK([AEEA-AEEA-γGlu-19‑carboxyheptadecanoyl])NFGPILSSTNVGSHTY-NH2 (disulfide 2-7) were 0.319 nM and 1.03 nM.

B1: N-alpha-[(S)-4-Carboxy-4-(19-carboxynonadecanoylamino)butyryl]-[Glu1,Glu14,Gln21,Gln35,Pro37]-pramlintide (peptide)
peptide: {C20 diacid-γGlu}-ECNTATCATQRLAEFLVHSSQNFGPILPPTNVGSQTP-NH2
modifications: disulfide 2-7
SMILES: CC[C@H](C)[C@H](NC(=O)[C@@H]1CCCN1C(=O)CNC(=O)[C@H](Cc1ccccc1)NC(=O)[C@H](CC(N)=O)NC(=O)[C@H](CCC(N)=O)NC(=O)[C@H](CO)NC(=O)[C@H](CO)NC(=O)[C@H](Cc1c[nH]cn1)NC(=O)[C@@H](NC(=O)[C@H](CC(C)C)NC(=O)[C@H](Cc1ccccc1)NC(=O)[C@H](CCC(=O)O)NC(=O)[C@H](C)NC(=O)[C@H](CC(C)C)NC(=O)[C@H](CCCNC(=N)N)NC(=O)[C@H](CCC(N)=O)NC(=O)[C@@H](NC(=O)[C@H](C)NC(=O)[C@@H]1CSSC[C@H](NC(=O)[C@H](CCC(=O)O)NC(=O)CC[C@H](NC(=O)CCCCCCCCCCCCCCCCCCC(=O)O)C(=O)O)C(=O)N[C@@H](CC(N)=O)C(=O)N[C@@H]([C@@H](C)O)C(=O)N[C@@H](C)C(=O)N[C@@H]([C@@H](C)O)C(=O)N1)[C@@H](C)O)C(C)C)C(=O)N[C@@H](CC(C)C)C(=O)N1CCC[C@H]1C(=O)N1CCC[C@H]1C(=O)N[C@H](C(=O)N[C@@H](CC(N)=O)C(=O)N[C@H](C(=O)NCC(=O)N[C@@H](CO)C(=O)N[C@@H](CCC(N)=O)C(=O)N[C@H](C(=O)N1CCC[C@H]1C(N)=O)[C@@H](C)O)C(C)C)[C@@H](C)O
For the molecule B1, in experiment [1], the “CTa receptor human EC50” value was determined as 0.496 nM. Moreover, in experiment [2], the “Amylin receptor human EC50” value amounted to 1.51 nM.

B2: N-alpha-[(S)-4-Carboxy-4-(19-carboxynonadecanoylamino)butyryl]-[Lys11,Glu14,His17,Pro37]-pramlintide (peptide)
peptide: {C20 diacid-γGlu}-KCNTATCATQKLAEFLHHSSNNFGPILPPTNVGSNTP-NH2
modifications: disulfide 2-7
SMILES: CC[C@H](C)[C@H](NC(=O)[C@@H]1CCCN1C(=O)CNC(=O)[C@H](Cc1ccccc1)NC(=O)[C@H](CC(N)=O)NC(=O)[C@H](CC(N)=O)NC(=O)[C@H](CO)NC(=O)[C@H](CO)NC(=O)[C@H](Cc1c[nH]cn1)NC(=O)[C@H](Cc1c[nH]cn1)NC(=O)[C@H](CC(C)C)NC(=O)[C@H](Cc1ccccc1)NC(=O)[C@H](CCC(=O)O)NC(=O)[C@H](C)NC(=O)[C@H](CC(C)C)NC(=O)[C@H](CCCCN)NC(=O)[C@H](CCC(N)=O)NC(=O)[C@@H](NC(=O)[C@H](C)NC(=O)[C@@H]1CSSC[C@H](NC(=O)[C@H](CCCCN)NC(=O)CC[C@H](NC(=O)CCCCCCCCCCCCCCCCCCC(=O)O)C(=O)O)C(=O)N[C@@H](CC(N)=O)C(=O)N[C@@H]([C@@H](C)O)C(=O)N[C@@H](C)C(=O)N[C@@H]([C@@H](C)O)C(=O)N1)[C@@H](C)O)C(=O)N[C@@H](CC(C)C)C(=O)N1CCC[C@H]1C(=O)N1CCC[C@H]1C(=O)N[C@H](C(=O)N[C@@H](CC(N)=O)C(=O)N[C@H](C(=O)NCC(=O)N[C@@H](CO)C(=O)N[C@@H](CC(N)=O)C(=O)N[C@H](C(=O)N1CCC[C@H]1C(N)=O)[C@@H](C)O)C(C)C)[C@@H](C)O
In the case of B2, in experiment [1], the “CTa receptor human EC50” value worked out at 0.083 nM. In addition, the “Amylin receptor human EC50” value in experiment [2] stood at 0.0805 nM.
Taken in the same sequence, the figures for KCNTATCATQRLANFLHHSSNNFGK([AEEA-AEEA-γGlu-19‑carboxyheptadecanoyl])ILSSTNVGSHTY-NH2 (disulfide 2-7) were 0.114 nM and 0.199 nM.

B3: N-alpha-[(S)-4-Carboxy-4-(19-carboxynonadecanoylamino)butyryl]-[His1,Glu14,Arg18,Pro37]-pramlintide (peptide)
peptide: X1-HCNTATCATQRLAEFLVRSSNNFGPILPPTNVGSNTP-NH2
modifications: disulfide 2-7
SMILES: CC[C@H](C)[C@H](NC(=O)[C@@H]1CCCN1C(=O)CNC(=O)[C@H](Cc1ccccc1)NC(=O)[C@H](CC(N)=O)NC(=O)[C@H](CC(N)=O)NC(=O)[C@H](CO)NC(=O)[C@H](CO)NC(=O)[C@H](CCCNC(=N)N)NC(=O)[C@@H](NC(=O)[C@H](CC(C)C)NC(=O)[C@H](Cc1ccccc1)NC(=O)[C@H](CCC(=O)O)NC(=O)[C@H](C)NC(=O)[C@H](CC(C)C)NC(=O)[C@H](CCCNC(=N)N)NC(=O)[C@H](CCC(N)=O)NC(=O)[C@@H](NC(=O)[C@H](C)NC(=O)[C@@H]1CSSC[C@H](NC(=O)[C@H](Cc2c[nH]cn2)NC(=O)CC[C@H](NC(=O)CCCCCCCCCCCCCCCCCCC(=O)O)C(=O)O)C(=O)N[C@@H](CC(N)=O)C(=O)N[C@@H]([C@@H](C)O)C(=O)N[C@@H](C)C(=O)N[C@@H]([C@@H](C)O)C(=O)N1)[C@@H](C)O)C(C)C)C(=O)N[C@@H](CC(C)C)C(=O)N1CCC[C@H]1C(=O)N1CCC[C@H]1C(=O)N[C@H](C(=O)N[C@@H](CC(N)=O)C(=O)N[C@H](C(=O)NCC(=O)N[C@@H](CO)C(=O)N[C@@H](CC(N)=O)C(=O)N[C@H](C(=O)N1CCC[C@H]1C(N)=O)[C@@H](C)O)C(C)C)[C@@H](C)O
Regarding B3, the “CTa receptor human EC50” value in experiment [1] worked out at 0.022 nM. Besides, the “Amylin receptor human EC50” value in experiment [2] was 0.0415 nM.

B4: N-alpha-[(S)-4-Carboxy-4-(19-carboxynonadecanoylamino)butyryl]-[Glu14,Gln21,Gln35,Pro37]-pramlintide (peptide)
peptide: {C20 diacid-γGlu}-KCNTATCATQRLAEFLVHSSQNFGPILPPTNVGSQTP-NH2
modifications: disulfide 2-7
SMILES: CC[C@H](C)[C@H](NC(=O)[C@@H]1CCCN1C(=O)CNC(=O)[C@H](Cc1ccccc1)NC(=O)[C@H](CC(N)=O)NC(=O)[C@H](CCC(N)=O)NC(=O)[C@H](CO)NC(=O)[C@H](CO)NC(=O)[C@H](Cc1c[nH]cn1)NC(=O)[C@@H](NC(=O)[C@H](CC(C)C)NC(=O)[C@H](Cc1ccccc1)NC(=O)[C@H](CCC(=O)O)NC(=O)[C@H](C)NC(=O)[C@H](CC(C)C)NC(=O)[C@H](CCCNC(=N)N)NC(=O)[C@H](CCC(N)=O)NC(=O)[C@@H](NC(=O)[C@H](C)NC(=O)[C@@H]1CSSC[C@H](NC(=O)[C@H](CCCCN)NC(=O)CC[C@H](NC(=O)CCCCCCCCCCCCCCCCCCC(=O)O)C(=O)O)C(=O)N[C@@H](CC(N)=O)C(=O)N[C@@H]([C@@H](C)O)C(=O)N[C@@H](C)C(=O)N[C@@H]([C@@H](C)O)C(=O)N1)[C@@H](C)O)C(C)C)C(=O)N[C@@H](CC(C)C)C(=O)N1CCC[C@H]1C(=O)N1CCC[C@H]1C(=O)N[C@H](C(=O)N[C@@H](CC(N)=O)C(=O)N[C@H](C(=O)NCC(=O)N[C@@H](CO)C(=O)N[C@@H](CCC(N)=O)C(=O)N[C@H](C(=O)N1CCC[C@H]1C(N)=O)[C@@H](C)O)C(C)C)[C@@H](C)O
On to B4, for which the “CTa receptor human EC50” value in experiment [1] turned out to be 0.0585 nM. Further, the “Amylin receptor human EC50” value in experiment [2] was found to be 0.107 nM.
Consider KCNTATCATQRLAEFLHHSSNNFGK([AEEA-AEEA-γGlu-19‑carboxyheptadecanoyl])ILSSTNVGSHTY-NH2 (disulfide 2-7), for which, in experiment [1], the “CTa receptor human EC50” value was 0.111 nM. Also, the “Amylin receptor human EC50” value in experiment [2] came to 0.301 nM.
KCNTATCATQRLAEFLVHSSK([AEEA-AEEA-γGlu-19‑carboxyheptadecanoyl])NFGPILSRTNVGSHTY-NH2 (disulfide 2-7): the “CTa receptor human EC50” value in experiment [1] is 0.229 nM. The “Amylin receptor human EC50” value in experiment [2] stood at 0.54 nM.
Turning to KCNTATCATQRLAEFLHHSSK([AEEA-AEEA-γGlu-19‑carboxyheptadecanoyl])NFGPILSPTNVGSHTY-NH2 (disulfide 2-7), in experiment [1], the “CTa receptor human EC50” value was 0.347 nM. In addition, the “Amylin receptor human EC50” value in experiment [2] came out at 0.625 nM.

B5: N-alpha-[(S)-4-Carboxy-4-(19-carboxynonadecanoylamino)butyryl]-[Glu14,His17,Thr21,Pro37]-pramlintide (peptide)
peptide: {C20 diacid-γGlu}-KCNTATCATQRLAEFLHHSSTNFGPILPPTNVGSNTP-NH2
modifications: disulfide 2-7
SMILES: CC[C@H](C)[C@H](NC(=O)[C@@H]1CCCN1C(=O)CNC(=O)[C@H](Cc1ccccc1)NC(=O)[C@H](CC(N)=O)NC(=O)[C@@H](NC(=O)[C@H](CO)NC(=O)[C@H](CO)NC(=O)[C@H](Cc1c[nH]cn1)NC(=O)[C@H](Cc1c[nH]cn1)NC(=O)[C@H](CC(C)C)NC(=O)[C@H](Cc1ccccc1)NC(=O)[C@H](CCC(=O)O)NC(=O)[C@H](C)NC(=O)[C@H](CC(C)C)NC(=O)[C@H](CCCNC(=N)N)NC(=O)[C@H](CCC(N)=O)NC(=O)[C@@H](NC(=O)[C@H](C)NC(=O)[C@@H]1CSSC[C@H](NC(=O)[C@H](CCCCN)NC(=O)CC[C@H](NC(=O)CCCCCCCCCCCCCCCCCCC(=O)O)C(=O)O)C(=O)N[C@@H](CC(N)=O)C(=O)N[C@@H]([C@@H](C)O)C(=O)N[C@@H](C)C(=O)N[C@@H]([C@@H](C)O)C(=O)N1)[C@@H](C)O)[C@@H](C)O)C(=O)N[C@@H](CC(C)C)C(=O)N1CCC[C@H]1C(=O)N1CCC[C@H]1C(=O)N[C@H](C(=O)N[C@@H](CC(N)=O)C(=O)N[C@H](C(=O)NCC(=O)N[C@@H](CO)C(=O)N[C@@H](CC(N)=O)C(=O)N[C@H](C(=O)N1CCC[C@H]1C(N)=O)[C@@H](C)O)C(C)C)[C@@H](C)O
As to B5, the “CTa receptor human EC50” value in experiment [1] is 0.0595 nM. The “Amylin receptor human EC50” value in experiment [2] stood at 0.091 nM.
